# Laboratory results taken from PMC8339797 (2021).
# Numbered stars: 1 amine (or outer) side, 2 acyl side, 3 side chain; on linkers, the order of the positions; unused ones are H or OH. Square brackets hold non-standard residues; d marks the D form. Side chains are listed from the residue outwards. dextran = polysaccharide of α-(1–6)-linked D-glucose units with low branching; Propanoyl(3-triazol-4-yl) = O=C(CCc1cn([*:1])nn1)[*:2]
# T1: RGD-decorated Fc-dextran-MMAE construct 20 (cyclo[RGDfK] multimer) (also: multivalent on dextran conjugated to aglycosylated human Fc N297A with MMAE)
# T1 chain: cyclo(RGD[dF]K([Propanoyl(3-triazol-4-yl)-dextran]))
# Biological target: T1, RGD-decorated Fc-dextran-MMAE construct …
# Test: flow cytometry cell binding (apparent KD)
binder,measurement,value
integrin alpha-v beta-3 (on U87MG cells) (protein) chain 1: FNLDVDSPAEYSGPEGSYFGFAVDFFVPSASSRMFLLVGAPKANTTQPGIVEGGQVLKCDWSSTRRCQPIEFDATGNRDYAKDDPLEFKSHQWFGASVRSKQDKILACAPLYHWRTEMKQEREPVGTCFLQDGTKTVEYAPCRSQDIDADGQGFCQGGFSIDFTKADRVLLGGPGSFYWQGQLISDQVAEIVSKYDPNVYSIKYNNQLATRTAQAIFDDSYLGYSVAVGDFNGDGIDDFVSGVPRAARTLGMVYIYDGKNMSSLYNFTGEQMAAYFGFSVAATDINGDDYADVFIGAPLFMDRGSDGKLQEVGQVSVSLQRASGDFQTTKLNGFEVFARFGSAIAPLGDLDQDGFNDIAIAAPYGGEDKKGIVYIFNGRSTGLNAVPSQILEGQWAARSMPPSFGYSMKGATDIDKNGYPDLIVGAFGVDRAILYRARPVITVNAGLEVYPSILNQDNKTCSLPGTALKVSCFNVRFCLKADGKGVLPRKLNFQVELLLDKLKQKGAIRRALFLYSRSPSHSKNMTISRGGLMQCEELIAYLRDESEFRDKLTPITIFMEYRLDYRTAADTTGLQPILNQFTPANISRQAHILLDCGEDNVCKPKLEVSVDSDQKKIYIGDDNPLTLIVKAQNQGEGAYEAELIVSIPLQADFIGVVRNNEALARLSCAFKTENQTRQVVCDLGNPMKAGTQLLAGLRFSVHQQSEMDTSVKFDLQIQSSNLFDKVSPVVSHKVDLAVLAAVEIRGVSSPDHVFLPIPNWEHKENPETEEDVGPVVQHIYELRNNGPSSFSKAMLHLQWPYKYNNNTLLYILHYDIDGPMNCTSDMEINPLRIKISSLQTTEKNDTVAGQGERDHLITKRDLALSEGDIHTLGCGVAQCLKIVCQVGRLDRGKSAILYVKSLLWTETFMNKENQNHSYSLKSSASFNVIEFPYKNLPIEDITNSTLVTTNVTWGIQPAPMPV chain 2: GPNICTTRGVSSCQQCLAVSPMCAWCSDEALPLGSPRCDLKENLLKDNCAPESIEFPVSEARVLEDRPLSDKGSGDSSQVTQVSPQRIALRLRPDDSKNFSIQVRQVEDYPVDIYYLMDLSYSMKDDLWSIQNLGTKLATQMRKLTSNLRIGFGAFVDKPVSPYMYISPPEALENPCYDMKTTCLPMFGYKHVLTLTDQVTRFNEEVKKQSVSRNRDAPEGGFDAIMQATVCDEKIGWRNDASHLLVFTTDAKTHIALDGRLAGIVQPNDGQCHVGSDNHYSASTTMDYPSLGLMTEKLSQKNINLIFAVTENVVNLYQNYSELIPGTTVGVLSMDSSNVLQLIVDAYGKIRSKVELEVRDLPEELSLSFNATCLNNEVIPGLKSCMGLKIGDTVSFSIEAKVRGCPQEKEKSFTIKPVGFKDSLIVQVTFDCDCACQAQAEPNSHRCNNGNGTFECGVCRCGPGWLGSQCECSEEDYRPSQQDECSPREGQPVCSQRGECLCGQCVCHSSDFGKITGKYCECDDFSCVRYKGEMCSGHGQCSCGDCLCDSDWTGYYCNCTTRTDTCMSSNGLLCSGRGKCECGSCVCIQPGSYGDTCEKCPTCPDACTFKKECVECKKFDRGALHDENTCNRYCRDEIESVKELKDTGKDAVNCTYKNEDDCVVRFQYYEDSSGKSILYVVEEPECPKGPD,Kd,33 nM
